B1: TPR t1 (parent)
chain: GACCAAUCUGCCCUCAGAGCUCGAGAACAUCUUCGGAUGCAGAGGAGGCAGGCUUCGGUGGCGCGAUAGCGCCAACGUCCUCAACCUCCAAUGCAUCCCACCACAUGAUGAUGCCUGAAGAGCCUUGGUUUUUUG

Variants of: B1
Test: polymerase ribozyme fitness, log enrichment relative to wild type (log ratio); higher = more active; in vitro selection for triplet polymerase activity
Outline: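 In triplicate, a single round of in vitro selection was run on each mutant library, PCR-built and transcribed, covering one subunit of a heterodimeric triplet polymerase ribozyme. Frozen incubation at −7 °C followed annealing with a biotinylated primer, partner subunit and triplets, and extended constructs were then gel-excised, streptavidin-captured and taken through RT-PCR. Fitness is the logarithm of genotype enrichment over wild-type enrichment, from inverse-variance-weighted replicate averages of Illumina-sequenced inputs and outputs. […] only genotypes with ≥10 input reads and ≥1 read per output were kept.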

Variant	polymerase ribozyme fitness (log ratio)
GACCAAUCUGCCCUCAGAGCUCGAGAACAUCUUCGGAUGCAGAGGAGGCAGGCUUCGGUGGCGCGAUAGUGCCAACGUCCUCAAUCUCCAAUGCAUCCCACCACAUGAUGAUGCCUGAAGAGCCUAGGUUUUUUG	-3.11
GACCAAUCUGCCCUCAGAGCGCGAGAACAUCUUCGGAUGCAGAGGAGCCAGGCUUCGGUGGCGCGAUAGCGCCAACGUCCUCAACCUCCAAUGCAUCCCACCACAUGAUGAUGCCUGAAGAGCCUUGGUUUUUUG	-1.56
GACCAAUAUGCCCUCAGAGCUCGAGAACAUCUUCGGAUGCAGAGGAGGCAGGCUUCGGUGGCGUGAUAGCGCCAACGACCUCAACCUCCAAUGGAUCCCUCAACAUGAUGAAGCCUGAAGAGCCUUGAAUUUUUC	-4.75
GACCAAUCUGCACUCAGAGCUCGAGAACAUCUUCGGAUGCAGAGGAGGAAGGCUUCGGUGACGCGAUAGCGCCAACGUCCUAAACCUCCAAUGCAUCCCACCACAUGAUGAUGCCUGAAGAGCCUUGGUUUUUUG	-0.648
GACCAAUCUGCCCUCAGAGCUCGAGAACAUCUUCGGAUGCAGAGGAAGAAGGCUUCGGUGGCGCGAUAGCGCCAACGUCCUCAACCUCCAAUGCAUCCCACCACAUGAUGAUGCCUGAAGAGCUUUGGUUUUUUG	0.655
GACCAAUCUGCCCUUAGAGCUCGAGAACAUCUUCGGAUGCAGUGCAGGCAGGCUUCGGUGGCGCGAUAGCGCCAACGUCCUCAACCUCCAAUGGAUCCCACCACAUGAUGAUGCCUGAAGAGCCUUGGUUUUUUG	-4.68
GACCAAUCUGCCCUCAGAGCUCGAGAACAUCUUCGGAUGCAGAGGAGGCAGGCUUCGGUGGCGCGAUAGCGCCAACGUCCUCAACCUCCAAUGCAUCCCACCACCUGAUGAUUCCUGAAGAGCCUUGGUUUUUUG	-4.85
GACCAAUCUGCCCUCAGAGCUCGAGAACAUCUUCGGAUGCAGAGGAGGCAGGCUUCGGUGGCGCGAUAGCGCCAACGUCCUCAACCUCCAAUACAUCCCACCACAUGAUGAUGCGUGAAGAGCCUUGGUUUUUUG	-2.4
GACGAAUCUGCCGUCAGAGCUCGAGAACAUCUUCGGAUGCAGAGGAGGCAGGCUUCGGUGGCGCGAUAGCGCCAACGUCCUCAACCUCCAAUGCAUCCCACCACAUGAUGAUGCCUGAAGAGCCUUGGUUUUUUG	-3.83
GACCAAUCUGCCCUCAGAGCUCGAGAACAUCUUCGGAUGCAGAGGAGGUAGGCUUCGGUGGCGCGAUAGCGCCAACGUCCCCAACCUCCAAUGCGUCCCACGACAUGAUUAUGCCUGAAGAGCCUUGGUUUUUUU	-7.51
GACCGAUCUGCCCUCAGAGCUCGAGAACAUCUUCGGAUGCAGAGGAGCCAGGCUUCGGUGGCACGAUAGCGCCAACGUCCUCAACCUCCAAUGCAUCCCACCACAUGAUGAUGCCUCAAGAGCCUUGGUUUUUUG	-6.49
GACCAAUCUGCCCUCAGAGCUCGAGAACAUCUUCGGAUGCAGAGGAGGCAGGCUUCGGUGGCGCGAUAGCUCCAACGUCCUCAACCUCCAAUGCAUCCCACCACAUGAUGAUGCCUGAAGAGCCUUGGUUAUGUG	-1.3
GACCAAUCGGCCCUCAGAGCUCGAGAACAUCUUCGGAUGCAGAGGAGGCAGGCUUCGGUGGCGCGAUAGCGGCAACGUCCUCAACCUCCAAUGCAUCCCACCACAUGAUGAUGCCUGAAGAGCCUUGGUUUUUUG	-0.437
GACCAAUCUGCCCUCAGAGCUCGAGAACAUCUUCGGAUGCAGAGGAGGCAGGCUUCGGUGGCUCGAUAGCGCCAACGUCCUCAACCUUCAAUGCAUCCCACCACAUGAUGAUGCCUGAAGAGCCUUGGUUUUUUG	-2.31
GACCAAUCUGCCCUCAGAGCUCGAGAACAUCUUCGGAUGCAGAGGAGGCAGGCUUCGGUGGCGCGAUAGCGCCAACGUCCUCAACCUCCAAUGCAACCCACCACAUGAUUAUGCCUGAAGAGCCUUGGUUUUUUG	-2.56
GACCAAUCUGCGCUCAGAGCUCGAGAACAUCUUCGGAUGCAGAGGAACCAGGCUUCGGUGGCGCGAUGGCGCCAACGUCCUCAACCUCCAAUGCAUCCCACCGCCAGAUGAUGCCUUAACAGCCUUGGUUUUUUG	-7.36
GACCAAUCUGCCCUCAGAGCUCGAGAACAUCCUCGGAUGCAGAGGAGGCAGACUUCGGUGACGCGAUAGCGCCAACGUCCUCAACCUCCAAUGCAUCCCACCACAUGAUGAUGCCUGAAGAGCCAUGGUUUUUUG	-0.743
GACCAAUUUGCCCUCAGAGCCCGAGAACAUCUUCGGAUGCAGAGGAGGCAGGCUUCGGUGGCGCGAUAGCGCCAACGUCCUCAACCUCCAAUGCAUCCCACCACAUGAUGAUGCCUGAAGAACCUUGGUUUUUUG	-0.0897
GACCAAUCUGCCCUCAGAGCUCGAGAACAUCUUCGGAUGCAGAGGAGGCAGGCUUCGGUGGCGCGAUAGCGCCAACGUCCUCAACCUCCAAUGCCUCCCACCACAUAAUGAUGCCUGAAGAGCCUUGGUUUUUUG	-7.02
GACCAAUCUGCCCUCAGAGCUCGAGAACAUCUUCGGAUGCAGAGGAGGCAGGCUUCGGUGGCGCGAUAGCGUUAACGUCCUCAACCUUCAAUGCAUCCCACCACAUGAUGAUUCCUGAAGAGCCAUGGUUUUUUG	-5.18
GACCAAUCUGCCCUCAGAUCUCGAGAACAUCUUCGGAUGCAGAGGAGGCAGGCUUCGGUGGCGCGAUAGCACCAACGUCCUCAACCUCCAAUGCAUCCCACCACAUGAUGAUGCCUGGAGAGCCUUGGUUUUUUG	-6.34

Variant	polymerase ribozyme fitness (log ratio)
GACCAAUCUGCCCUCAGAGCUCGAGAACAUCUUCGGGUGCAGAGGAGGCAGGCUUCGGUGGCGCGAUAGCGCCAACGUCCUCAACCUCCAAAGCAUCCCACCACAUGAUGAUGCCUGAAGAGCCUUGGUUUUUUG	-2.8
GACCAAUCUGCCCUCAGAGCUCGAGAACAUCUUCGGAUGCAGAGGAGGCAGGCUUCGGUGGCGCGAUAGCGCCAAUGUCCUCAACCUCCAAUGCAUCCCACCACAUGAUCAUGCCUGAAGAGCCUUGGUUUUUUG	-4.7
GACCAAUCUGCCCUCAGAGCUCGAGAACAUCUUCGGAUGCAGAGGAGGCAGGCUUCGGUGGCGCGAUAGCGCCAACGUCCUCAUCCUCCAAUGCAUCCCACCACAUGAUGAUGCCUGAAGAGCCUUGGUUUUUUG	-0.405
GACCAAUCUGCCCUCAGAGCUCGAGAACAUCUUCGGAUGCAGAGGAGGCAGGCUUCGGUGGCGCGAUAGCGCCAACGUCCUCAACCUCCAAUCCAUCCCACCACAUGAUGAGGCCUGAAGAGCCUUGGUUUUUUG	-0.938
GACCAAUCUGCCCUCAGAGCUCGAGAAUAUCUUCGGAUGCAGAGGAGGCAGGCUUCGGUGGCGCGAUAGCGCCAACGUCCUCAACCUCCAAUGCAUCCCACCACAUGAUGAUCCCUGAAGAGCCUUGGUUUUUUG	-3.57
GACCAAUUUGCCCUCAGAGCUCGAGAACAUCUUCGGAUGCAGAGGAGGCAGGCUUCGGUGGCGCGAUAGCGCCAACGUCCUCAACCUCCAAUGCAUCCUACCACAUGAUGAUGCCUGAAGAGCCUUGGUUUUUUG	-2.32
GACCAAUCUGCCCUCAGAGCUCGAGAACAUCUUCGGAUGCAGAAGAGGCAGGCUUCGGUGGCGCGAUAGCGCCAACGUCCUCAACCUCCAAUGCAUCCCACCACAUGAUGAUGCCUGAAUAGCCUUGGUUUUUUG	-1.14
GACCAAUCUGCCCUCAGAGCUCGAGAACAUCUUCGGAUGCAGAGGAGGCAGGCUUCGGUAGCGCGAUAGCGCCAACGUCCUCAACCUCCAAUGCACCCCACCACAUGAUGAUGCCUGGAGAGCCUUGGUUUUUUG	-0.126
GACCAAUCUGCCCUCAGAGCUCGAGAACAUUUUCGGAUGCAGAGGAGACAGGCUUCGGUGGCGCGAUAGCGCUAACGUCCUCAACCUCCAAUGCAUCCCACCACAGGAUGAUGCCUGAAGAGCCUUGGUUUUUUG	-3.4
GACCAAUCUGUCCUCAGAGCUCGAGAACAUCUUCGGAUGCAGAAGAGGCAGACUUCGGUGGCGCGAUAGCGCCAACGUCCUCAACCUCCAAUGCAUCCCACCACAUGAUGAUGCCUGCAGAGGCUUGGUUUUUUG	-1.81
GACCAAUCUGCCCUCAGAGCUCGAGAACAUCUUCGGAUGCAGAGGAGGCAGGCUUCGGUGGCGCGAUAGCGCCAACGUCCUCAACUACCAAUGCAUCCCAACACAUGAUGAUGCCUGAAGAGCCUUGGGUUUUUG	-3.91
GAACAAUCUGCCCUCAGAGCUCGAGAACAUCUUCGGAUGCAGAGGAGGCAGGCUUCGGUGGCGCGAUAGCGCCAACGUCCUCAACCUCCAAUGCAUCCUACCACAUGAUGAUGCCUGAAGAGCCUUGGUUUUUUG	-3.8
GACCAAUCUGCCCUCAGAGCUCGAGAACAUCUUCGGAUGCAGAGGAGGCAGGCUUCGGUGGCGCGAUAGCGCCAACGUCCUGAACCUCCAAUGCAUCCCACCACAUGAUGAUGCCUGAAGAGGCUCGCUUUUUUG	-2.13
GACCAAUCUGCCCUGAGAGCUCGAGAACAUCUUCGGAUGCAGAGGAGGCAGGCUUCGGUGGCGCGAUAGCGCCAACGUCCUCAACCUCCAAUGCAUCCCACCACAUGAUAAUGCCUGAAGAGCCUUGGUUUUUUG	-3.78
GACCAAUCUUCCCUCAGAGCUCGAGAACAUCUUCGGAUGCAGAGGAGGCAGGGUUUGGUGGCGCGAUAGCGCCCAAGUCCUCAACCUCCAAUGCGUCCCACCACAUGAUGAUGCCUGAAGAUCCUUGGUUUUUUG	-0.515
GACCAAUCUGUCCUCAGAGCUCGAGAACAUCUUCGGAUGCAGAGGAGUCAGGCUUCGGCGGCGCGAUAGCGCCAACGUCCUCAGCCUCCAAUGCAUCCCAACACAUGAUGAUGCCUGAAGAGCCUUGGUUUUUUG	-2.88
GACCAAUCUGCACUCAGAGCUCGAGAACAUCUUCGGAUGCAGAGGAGGAAGGCUUCGGUGGCUCGAUAGCGCCAACGUCCUCAACCUCCAAUGCAUCCCACCACAUGAUGAUGCCUGAAGUGCCUUGGUUUCUUA	1.42
GACCAAUCUGCCCUCAGAGCUCGAGAACAUCUUCGGAUGCUGAGGAGGCAGGCUUCGGUGGCGCUAUAGCGCCAACGUCCUCAACCUCCAAUGCAUCCCACCACAUGAUGAUGCCUGAAGAGCCUUGGUUUUUUG	-6
GACCAAUCUGCCCUCAGAGCUCGAGAACAUCUUCGGAUGCAGAGGAGGCAGGCUUUGGUGGCGCGAUAGCGCCAACGUCCUCAACCUCCGAUCCAUCCCACCACAUGAUGAUGCCUGAAGAGCCUUGGUUUUUUG	-1.38
GACCAAUGUGCCCUCAGAGCUCGAGAACAUCUUCGGAUGCAGAGGAGGCAGGCUUCGGUGGCGCGAUAGCGCCAACGUCCUCAACCUCCAAUGCAUCCCACCACAUGAUGAUGCCUGUAGAGCCUUGGUUUUUUG	1.5
GACCAAUCUGCCCUCAGAGCUCGAGAACAUCUUCGGAUGCAGAGGAGACAGGCUUCGGUGGCCCGAUAGCGCCAACGUCCUGAACCUCCAAUGCAUCCCACCACAUGAUGAUUCCUGAAGAGCCUUGGUUUAUUG	-3.71
